Results: US20240317847A1

Assays:
[1] = target: murine IL-11 (mouse) (UniProt P47873); experiment: Tri-complex ELISA, mIL-11 + mIL-11Ra-Fc + mgp130-Fc, inhibition of complex formation
[2] = target: murine IL-11 (mouse) (UniProt P47873); experiment: cell-based or functional assay
[3] = target: human IL-11 (human) (UniProt P20809); experiment: cell-based or functional assay
[4] = target: human IL-11 (human) (UniProt P20809); experiment: Tri-complex ELISA, hIL-11 + mIL-11Ra-Fc + hgp130-Fc, inhibition of complex formation
[5] = target: human IL-11 (human) (UniProt P20809); experiment: Di-complex ELISA, canine IL11RA-hFc binding to immobilized hIL-11, competition
[6] = target: murine IL-11 (mouse) (UniProt P47873); experiment: Di-complex ELISA, canine IL11RA-hFc binding to immobilized mIL-11, competition
[7] = target: murine IL-11 (mouse) (UniProt P47873); experiment: SPR (Biacore), antibody captured, IL-11 at single concentration 200 nM
[8] = target: human IL-11 (human) (UniProt P20809); experiment: as above
[9] = target: murine IL-11 (Invigate, e.g., lot #C210819-09) (mouse) (UniProt P47873); experiment: SPR, Biacore T200, 25 C; antibody captured via anti-mouse Fc, IL-11 as analyte, 1:1 Langmuir fit
murine IL-11 (Invigate, e.g., lot #C210819-09) (mouse), sequence (P47873 22-199): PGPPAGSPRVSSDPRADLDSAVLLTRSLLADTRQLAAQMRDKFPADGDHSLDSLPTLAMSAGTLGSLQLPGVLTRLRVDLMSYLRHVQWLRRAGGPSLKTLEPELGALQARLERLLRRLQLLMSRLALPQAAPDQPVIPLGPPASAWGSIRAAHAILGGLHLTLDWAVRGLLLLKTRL

[10] = target: human IL-11 (Invigate, e.g., lot #C121021-19) (human) (UniProt P20809); experiment: as above
human IL-11 (Invigate, e.g., lot #C121021-19) (human), sequence (P20809 22-199): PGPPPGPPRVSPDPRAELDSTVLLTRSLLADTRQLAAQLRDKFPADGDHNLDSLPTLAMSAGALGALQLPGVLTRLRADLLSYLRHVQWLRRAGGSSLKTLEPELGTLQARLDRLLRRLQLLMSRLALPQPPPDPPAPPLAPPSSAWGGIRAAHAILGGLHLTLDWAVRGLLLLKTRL

[11] = target: murine IL-11 (Invigate, e.g., lot #C210819-09) (mouse) (UniProt P47873); experiment: cell-based or functional assay
[12] = target: human IL-11 (Invigate, e.g., lot #C121021-19) (human) (UniProt P20809); experiment: cell-based or functional assay
[13] = target: human IL-11 (Invigate, e.g., lot #C121021-19) (human) (UniProt P20809); experiment: Tri-complex ELISA: antibody titrated against 8 nM human IL-11, 2 nM human gp130-human-Fc and 2 nM murine IL11RA-murine-Fc
[14] = target: murine IL-11 (Invigate, e.g., lot #C210819-09) (mouse) (UniProt P47873); experiment: Di-complex ELISA: biotinylated murine IL-11 on streptavidin plate, antibody titrated against 2 nM canine IL11RA-human-Fc (competitor)
[15] = target: murine IL-11 (Invigate, e.g., lot #C210819-09) (mouse) (UniProt P47873); experiment: Tri-complex ELISA: antibody titrated against 8 nM murine IL-11, 2 nM murine gp130-human-Fc and 2 nM murine IL11RA-murine-Fc
[16] = target: human IL-11 (Invigate, e.g., lot #C121021-19) (human) (UniProt P20809); experiment: Di-complex ELISA: biotinylated human IL-11 on streptavidin plate, antibody titrated against 2 nM canine IL11RA-human-Fc (competitor)
[17] = target: IL-11 [218-IL from R&D Systems, Inc.] (human) (UniProt P20809); experiment: cell-based or functional assay
IL-11 [218-IL from R&D Systems, Inc.] (human), sequence (P20809 22-199 limits assumed): as the sequence (P20809 22-199) above

human IL-11 (human), sequence (P20809 22-199): as above
murine IL-11 (mouse), sequence (P47873 22-199): as the sequence (P47873 22-199) above

| Efficacy (%) [1] [%] | IC50 [1] [nM] | Efficacy (%), Stat3 reporter gene assay [2] [%] | Efficacy (%), Stat3 reporter gene assay [3] [%] | Efficacy (%) [4] [%] | IC50 [4] [nM] | Efficacy (%) [5] [%] | IC50 [5] [nM] | Efficacy (%) [6] [%] | IC50 [6] [nM] | Kd [7] [nM] | Kd [8] [nM] | IC50, Stat3 reporter gene assay [2] [nM] | Substance | further results |
| --- | --- | --- | --- | --- | --- | --- | --- | --- | --- | --- | --- | --- | --- | --- |
| 106 | 17 | 75.5 | 5.1 | 36.9 | 14 | 74.9 | 1.9 | 89.9 | 4.7 | 2 | 3.3 |  | GTX52814 (antibody) |  |
|  |  |  |  |  |  |  |  |  |  |  |  |  | TPP-14250 (R&D Systems, #MAB218) (antibody) | Kd [9]: 3.8 nM; Kd [10]: 19 nM; Efficacy (%), Stat3 reporter gene assay, mouse Il11ra, 3.13 nM mIL-11 [11]: 69.1%; IC50 [M], Stat3 reporter gene assay, HEK 293F transfected with mouse Il11ra, 3.13 nM mIL-11 [11]: 1.42e-07 M; Efficacy (%), Stat3 reporter gene assay, human IL11RA, 0.78 nM hIL-11 [12]: 27.1%; IC50 [M], Stat3 reporter gene assay, HEK 293F transfected with human IL11RA, 0.78 nM hIL-11 [12]: 2.41e-10 M; Efficacy (%) [13]: 67.2%; IC50 [13]: 38 nM; Efficacy (%) [14]: 92.3%; IC50 [14]: 1.3 nM; Efficacy (%) [15]: 60.9%; IC50 [15]: 17 nM; Efficacy (%) [16]: 67.2%; IC50 [16]: 7.4 nM |
| 90.3 | 6.6 | 88.3 | 52.7 | 78.5 | 10 | 90.1 | 10 | 96.2 | 6.5 | 6.2 | 6.3 | 5.6 | LS-C193526 (antibody) | IC50, Stat3 reporter gene assay [3]: 50 nM |
| 62.3 |  | 47.6 | 19.9 | 34.1 | 19 | 51.1 | 60 | 70.5 | 29 | 2 | 3.6 |  | MA5-23711 (antibody) |  |
| 98.4 | 3.8 | 88 | 42.6 | 65.6 | 20 | 71.5 | 5.3 | 91.2 | 3.5 | 2.2 | 3.9 | 3.9 | LS-C104441 (antibody) |  |
|  |  |  |  |  |  |  |  |  |  |  |  |  | IL-11 function blocking polyclonal antibody AF-418-NA (R&D Systems, Inc.) | secretion of VEGF-A, primary human fibroid slice assay (ng/mg protein) [17]: 17.3 |
